Source: article doi:10.1101/2022.01.14.473406
Like-named read-outs stand apart in the source and are kept apart here.

Assays:
[1] = target: AP-Endonuclease 1 (APE1) (human) (UniProt P27695); test: SPR
[2] = target: T1, DNA ligase I EE/AA (C-terminal, delta261) (Homo sapiens, UniProt P18858 262-919, E346A;E592A); test: X-ray crystallography
[3] = target: T1, DNA ligase I EE/AA (C-terminal, …); test: X-ray crystallography; remark: listed apart in the source

T1 sequence (P18858 262-919 E346A/E592A): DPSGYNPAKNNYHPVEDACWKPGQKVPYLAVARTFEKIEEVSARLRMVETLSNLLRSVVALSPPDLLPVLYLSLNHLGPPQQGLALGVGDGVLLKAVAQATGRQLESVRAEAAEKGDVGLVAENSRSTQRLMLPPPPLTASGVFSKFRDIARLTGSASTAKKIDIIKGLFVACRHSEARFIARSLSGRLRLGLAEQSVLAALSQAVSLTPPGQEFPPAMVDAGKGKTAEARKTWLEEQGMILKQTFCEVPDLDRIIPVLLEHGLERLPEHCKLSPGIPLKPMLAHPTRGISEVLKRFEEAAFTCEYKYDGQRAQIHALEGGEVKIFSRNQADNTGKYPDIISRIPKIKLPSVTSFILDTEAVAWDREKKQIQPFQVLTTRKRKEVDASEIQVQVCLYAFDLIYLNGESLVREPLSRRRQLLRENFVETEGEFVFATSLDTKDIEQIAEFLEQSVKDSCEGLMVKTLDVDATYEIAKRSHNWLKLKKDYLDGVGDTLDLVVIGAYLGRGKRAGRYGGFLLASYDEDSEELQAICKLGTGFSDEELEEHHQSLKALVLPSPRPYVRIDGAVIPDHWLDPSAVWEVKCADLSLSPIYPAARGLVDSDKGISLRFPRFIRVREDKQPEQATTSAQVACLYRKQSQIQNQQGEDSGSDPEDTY
Chain of AP-Endonuclease 1 (APE1) (human) (P27695 whole entry): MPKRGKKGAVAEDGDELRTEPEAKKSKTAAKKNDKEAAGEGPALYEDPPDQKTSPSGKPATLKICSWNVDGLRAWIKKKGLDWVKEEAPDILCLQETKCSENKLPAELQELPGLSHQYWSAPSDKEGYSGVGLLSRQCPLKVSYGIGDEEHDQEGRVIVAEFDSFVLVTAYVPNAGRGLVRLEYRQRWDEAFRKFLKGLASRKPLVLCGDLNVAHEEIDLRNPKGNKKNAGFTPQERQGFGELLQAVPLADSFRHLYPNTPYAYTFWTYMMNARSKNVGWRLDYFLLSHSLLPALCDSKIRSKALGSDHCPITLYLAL
Chain of DNA ligase I (LIG1) (P18858 whole entry): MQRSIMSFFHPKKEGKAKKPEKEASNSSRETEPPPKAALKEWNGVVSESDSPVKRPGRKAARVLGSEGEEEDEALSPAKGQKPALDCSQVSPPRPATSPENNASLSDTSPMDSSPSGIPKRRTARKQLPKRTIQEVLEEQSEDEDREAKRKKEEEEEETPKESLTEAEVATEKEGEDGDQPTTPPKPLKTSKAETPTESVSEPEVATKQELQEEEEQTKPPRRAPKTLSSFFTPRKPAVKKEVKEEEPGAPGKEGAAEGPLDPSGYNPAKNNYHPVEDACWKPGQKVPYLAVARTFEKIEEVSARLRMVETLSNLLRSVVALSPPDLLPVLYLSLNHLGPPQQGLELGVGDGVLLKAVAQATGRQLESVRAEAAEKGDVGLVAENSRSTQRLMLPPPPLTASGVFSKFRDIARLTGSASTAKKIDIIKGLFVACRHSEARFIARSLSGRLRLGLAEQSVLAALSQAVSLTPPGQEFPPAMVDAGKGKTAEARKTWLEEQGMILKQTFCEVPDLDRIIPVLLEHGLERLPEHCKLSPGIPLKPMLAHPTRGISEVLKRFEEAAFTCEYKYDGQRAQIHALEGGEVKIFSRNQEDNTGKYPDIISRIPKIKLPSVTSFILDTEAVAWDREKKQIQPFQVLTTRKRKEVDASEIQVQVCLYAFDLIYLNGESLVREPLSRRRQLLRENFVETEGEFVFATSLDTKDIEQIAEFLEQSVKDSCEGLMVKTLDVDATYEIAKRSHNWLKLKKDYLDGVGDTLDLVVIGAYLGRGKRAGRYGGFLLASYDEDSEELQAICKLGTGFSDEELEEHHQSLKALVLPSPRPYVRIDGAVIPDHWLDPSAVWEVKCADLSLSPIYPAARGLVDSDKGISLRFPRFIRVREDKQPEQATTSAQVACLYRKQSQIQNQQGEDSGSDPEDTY

Molecule | binding result [2] | further results
DNA ligase I (LIG1) (from UniProt P18858 1-919) (enzyme) |  | Kd [1]: 117 nM
nick DNA 3'-dA:T (dsDNA, 5'-phosphate on downstream strand; 5'-adenylated (DNA-AMP) in crystal) DNA 1: GCTGATGCGTA DNA 2: GTCGGAC DNA 3: GTCCGACTACGCATCAGC | binds | 
nick DNA 3'-dG:T (dsDNA, 5'-phosphate on downstream strand; 5'-adenylated (DNA-AMP) in crystal) DNA 1: GCTGATGCGTG DNA 2: GTCGGAC DNA 3: GTCCGACTACGCATCAGC | binds | 
nick DNA 3'-dA:C (dsDNA, 5'-phosphate on downstream strand) DNA 1: GCTGATGCGTA DNA 2: GTCGGAC DNA 3: GTCCGACCACGCATCAGC |  | binding result [3]: binds
